Data: patent US20200138716A1, “COMPOSITIONS AND METHODS FOR INDUCING NANOPARTICLE-MEDIATED MICROVASCULAR EMBOLIZATION OF TUMORS” (Poseida Therapeutics, Inc., priority 2014, published 2020)

Columns and labels:
[1] = Serum chemistry panel in tumor-bearing mice; type: in vivo; conditions: n=5 mice per treatment
Experimental: In example studies, 0.5×106 to 1×10^6 4T1 mouse mammary carcinoma cells were injected into the mammary fat pads of balb/c mice. Once the tumors were greater than 5 mm in diameter, mice were randomized and treated via tail vein catheter with PEMs (at 100 μL of 2.5 mg/mL Mb, corresponding to 50 mg/mL polymer suspensions), empty polymersomes (at equivalent polymer doses), and NIR-Mb (at equivalent myoglobin doses) (n=5 per group). NIR-Mb and PEM were reduced to their oxy-myoglobin form prior to treatment, following protocols discussed above. Mice were sacrificed at 24 h (for biodistribution/pharmacokinetic studies) or at 6-9 days (for histology and toxicology assessment following tumor efficacy studies). In both cases, EF-5 was used to stain for hypoxia and Hoechst solution for perfusion. Tumors were collected at sacrifice. Immunofluorescence (IF) was carried out to image EF-5 and Hoechst distribution throughout the tumors. The same tumor sections were also stained with hematoxylin and eosin (H&E) for immunohistologic (IHC) analysis. Blood was collected via cardiac puncture at sacrifice; plasma was isolated and stored at −80° C. for later analyses.
FIG. 21 provides results of a serum chemistry panel done for a set of tumor-bearing mice injected with each of the following treatments (n=5 mice per treatment): NIR-myoglobin (control), empty polymersomes (control), and PEMs.

[2] = Biodistribution and pharmacokinetics after IV injection in 4T1 tumor-bearing mice; type: in vivo, balb/c mice; conditions: via the kidneys and into the bladder
Experimental: In example studies, 0.5×106 to 1×10^6 4T1 mouse mammary carcinoma cells were injected into the mammary fat pads of balb/c mice. Once the tumors were greater than 5 mm in diameter, mice were randomized and treated via tail vein catheter with PEMs (at 100 μL of 2.5 mg/mL Mb, corresponding to 50 mg/mL polymer suspensions), empty polymersomes (at equivalent polymer doses), and NIR-Mb (at equivalent myoglobin doses) (n=5 per group). NIR-Mb and PEM were reduced to their oxy-myoglobin form prior to treatment, following protocols discussed above. […]
Fluorescence images were analyzed with Living Image) 4.2 software by measuring radiant efficiency of regions of interest (ROIs). […] The total radiant efficiency of the plasma in each capillary tube was measured in a region of interest of consistent dimensions. Plasma concentrations of PEM and empty polymersomes were calculated based on a standard curve, which was first determined by adding solutions of known concentrations of PZn3-loaded emissive polymersomes to untreated plasma and measuring fluorescence from the capillary tubes. […] Myoglobin concentration versus time was estimated based on the PZn3 fluorescence of the PEM and the IRDye800 fluorescence of NIR-Mb, respectively, with the assumption that all myoglobin remained associated with the PEM following injection.

B1: NIR-Mb: near-infrared fluorophore (IRDye800cw NHS) covalently attached to the lysines on horse skeletal myoglobin (conjugate, UniProt P68082 2-154, looked up)
Myoglobin: GLSDGEWQQVLNVWGKVEADIAGHGQEVLIRLFTGHPETLEKFDKFKHLKTEAEMKASEDLKKHGTVVLTALGGILKKKGHHEAELKPLAQSHATKHKIPIKYLEFISDAIIHVLHSKHPGDFGADAQGAMTKALELFRNDIAAKYKELGFQG
modifications: IRDye800CW on lysines
notes: near-infrared fluorophore (IRDye800cw NHS) covalently attached to the lysines on horse skeletal myoglobin
**Q.** With B1 as the molecule, how does the serum chemistry panel [1] read?
**A.** Its serum chemistry panel is “no consistently elevated levels for any parameter”.

**Q.** And the plasma clearance [2]?
**A.** Its plasma clearance is “extremely rapid plasma clearance”.
